The values below come from article PMC3858845 (Molecular bioSystems, 2014).

The target in one data set is dpIYD (Daphnia pulex, UniProt E9FR69). As to the kind of experiment: FMN occupancy of purified enzyme from A450 and A280. Particulars: FMN bound as isolated. Format: binding.
The next data set concerns the target bfIYD (Branchiostoma floridae, UniProt C3Y0Q6). The data set is described as above. Particulars: FMN bound as isolated. Format: binding.
The target of another data set is nvIYD (Nematostella vectensis, UniProt A7S5D9). Described as above. Format: binding. To be noted: FMN bound as isolated.
A further data set addresses amIYD (Apis mellifera, UniProt A0A7M7RAX7). Described as above. Format: binding. To be noted: FMN bound as isolated.
The target of another data set is T1, drIYD (Danio rerio, UniProt E7FDV5).
T1 sequence (E7FDV5 24-295 limits assumed): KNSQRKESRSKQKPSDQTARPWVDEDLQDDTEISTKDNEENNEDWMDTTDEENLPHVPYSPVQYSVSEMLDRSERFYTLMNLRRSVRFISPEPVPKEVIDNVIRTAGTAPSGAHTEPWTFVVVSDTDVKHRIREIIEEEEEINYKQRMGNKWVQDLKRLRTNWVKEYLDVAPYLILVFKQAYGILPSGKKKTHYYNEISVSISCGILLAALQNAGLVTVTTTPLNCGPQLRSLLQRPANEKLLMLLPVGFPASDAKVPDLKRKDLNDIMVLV
The description is as above. Particulars: FMN bound as isolated. The class given is binding.

The target of another data set is hhIYD (Haliscomenobacter hydrossis, UniProt F4KU78). The data set is described as above. Format: binding. To be noted: FMN bound as isolated.
Another data set addresses hmIYD (Hydra vulgaris, UniProt T2MBC4). The data set is described as above. Format: binding. To be noted: FMN bound as isolated; partly purified enzyme.
Substrate in data set [1]: N[C@@H](Cc1cc(I)c(O)c(I)c1)C(=O)O
Nature of the data set: purified protein. To be noted: labelled compound; excess FMN present in assay. Format: biochemical, Daphnia pulex.

Substrate in data set [2]: N[C@@H](Cc1cc(I)c(O)c(I)c1)C(=O)O
Nature of the data set: purified protein. The class given is biochemical, Danio rerio. Particulars: labelled compound; excess FMN present in assay.

Substrate in data set [3]: N[C@@H](Cc1cc(I)c(O)c(I)c1)C(=O)O
As to the kind of experiment: purified protein. The class given is biochemical, Haliscomenobacter hydrossis. To be noted: labelled compound; excess FMN present in assay.

Substrate in data set [4]: N[C@@H](Cc1cc(I)c(O)c(I)c1)C(=O)O
As to the kind of experiment: purified protein. The class given is biochemical, Nematostella vectensis. To be noted: labelled compound; excess FMN present in assay.

Chain of hmIYD (T2MBC4 43-272): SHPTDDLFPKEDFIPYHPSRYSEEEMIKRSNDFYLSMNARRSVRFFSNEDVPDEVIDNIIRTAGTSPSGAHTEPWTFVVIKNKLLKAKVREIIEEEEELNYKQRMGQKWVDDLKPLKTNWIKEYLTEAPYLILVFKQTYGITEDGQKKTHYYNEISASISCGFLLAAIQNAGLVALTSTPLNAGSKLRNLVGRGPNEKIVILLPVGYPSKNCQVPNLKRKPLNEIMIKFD

As for `Cc1cc2nc3c(=O)[nH]c(=O)nc-3n(C[C@H](O)[C@H](O)[C@H](O)COP(=O)(O)O)c2cc1C` [FMN], the FMN occupancy is listed as 95% on dpIYD; 95% on bfIYD; 55% at nvIYD; 95% at amIYD; 95% at drIYD; 95% at hhIYD. The FMN occupancy at hmIYD was found to be 59%.

B1: dpIYD (Daphnia pulex) (protein)
chain: VKRESAIEQINEIEDDDEQSLEDQDVLPILFQYEKPSEADSIRRSEEFYRRMNQRRSVREISSDPVALEVIENIIKTGGTSPSGAHTEPWTFVVVSNLEMKQQIRQIIEAEEEINYKQRMGDVWVQDLQPVGTTWVKEYLTEAPWLILIFKQVHGFKRNGQKKIHYYNEISVSIATGFLLAAIQEAGLVTVTTTPLNCGPSIRVLLGRPVNEKLLLLLPVGYPKVGATVPDFKRKPLHDIMVHYQ
Regarding B1, in “purified protein [1]”, the Km came to 7 ± 1 µM, the kcat amounted to 0.293 ± 0.0133 s⁻¹ and the kcat/Km came out at 41700 ± 6670 M⁻¹ s⁻¹.

B2: drIYD (Danio rerio) (protein)
chain: T1 sequence (E7FDV5 24-295 limits assumed)
As for B2, in “purified protein [2]”, the Km is given as 8 ± 1 µM, the kcat was determined as 0.0683 ± 0.00333 s⁻¹ and the kcat/Km was found to be 8500 ± 1170 M⁻¹ s⁻¹.

B3: hhIYD (Haliscomenobacter hydrossis DSM 1100) (protein)
chain: MKQKPAFIPYAGAQFEPEEMLSKSAEYYQFMDHRRTVREFSNRAIPLEVIENIVMTASTAPSGAHKQPWTFVVVSDPQIKAKIRQAAEKEEFESYNGRMSNEWLEDLQPFGTDWHKPFLEIAPYLIVVFRKAYDVLPDGTQRKNYYVQESVGIACGFLLAAIHQAGLVALTHTPSPMNFLQKILQRPENERPFLLVPVGYPAEGAMVPDLQRKDKAAVMVVY
For B3, in “purified protein [3]”, the Km was determined as 6.6 ± 0.9 µM, the kcat came to 0.09 ± 0.005 s⁻¹ and the kcat/Km is 13300 ± 1670 M⁻¹ s⁻¹.

B4: nvIYD (Nematostella vectensis) (protein)
chain: MEVFKALFKSKEAYTVDVDPMKDSDEHDLPRDPLSIRVTGEEEVNHIPYPYFDEIPTEEEMKKKSAEFYKSMKKRRTVRKISSEPVPLEVIENIVRVAGTSPSGAHTEPWTYVVIRDPDLKKQIKEVVEEEEQLNYARRMGEKWVQDLSILKTTWSKPYIETAPYLILIFKQVYGIKPDGDKKVHYYNEISVCISCGLLLAAIQNAGLVTVTSTPMNAGPRLRVLLNRPQNEKLIMLLPVGYPAKDAEVPNLTRKPLEEIMVLK
Consider B4, for which, in the data set “purified protein [4]”, the Michaelis-Menten constant (Km) stood at 105 ± 26 µM, the kcat worked out at 0.533 ± 0.0667 s⁻¹ and the kcat/Km is 5000 ± 1330 M⁻¹ s⁻¹.
